Assay results published in PMC3236591, “Central domain deletions affect the SAXS solution structure and function of Yeast Hsp40 proteins Sis1 and Ydj1” (BMC Structural Biology, 2011).

Experiments:
heated luciferase = molecular target: T1, heated luciferase (UniProt P08659 1-550 = luciferase); test: not stated; binding of Hsp40s to heated denatured luciferase as previously described (refs 15, 21); Sis1 binding set as standard (100%)
T1 construct: luciferase, heat-denatured, used as client protein; Heat-denatured in the assay; Firefly luciferase is surmised; also called heated denaturated luciferase; denatured luciferase
T1 sequence (P08659 whole entry): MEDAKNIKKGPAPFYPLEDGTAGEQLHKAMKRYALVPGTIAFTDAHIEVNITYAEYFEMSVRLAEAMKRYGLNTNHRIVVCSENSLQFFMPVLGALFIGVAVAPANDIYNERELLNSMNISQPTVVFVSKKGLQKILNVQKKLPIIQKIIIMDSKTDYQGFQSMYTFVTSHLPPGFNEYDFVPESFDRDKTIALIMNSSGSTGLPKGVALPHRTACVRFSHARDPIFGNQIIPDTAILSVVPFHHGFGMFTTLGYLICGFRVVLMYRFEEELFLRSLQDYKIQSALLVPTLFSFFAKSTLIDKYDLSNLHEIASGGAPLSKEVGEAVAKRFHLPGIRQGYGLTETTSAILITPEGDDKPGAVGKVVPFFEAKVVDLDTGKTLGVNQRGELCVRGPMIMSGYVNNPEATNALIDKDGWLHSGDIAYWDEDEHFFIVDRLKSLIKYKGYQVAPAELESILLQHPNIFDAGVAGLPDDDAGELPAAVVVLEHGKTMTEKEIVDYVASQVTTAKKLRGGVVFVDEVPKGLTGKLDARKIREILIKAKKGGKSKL

[1] = molecular target: the molecule itself; test: SAXS; 2.75 to 7.1 mg/mL protein in 25 mM Tris-HCl pH 7.5, 500 mM NaCl; molecular mass from I(0) against a BSA standard

| Binder | percent of Sis1 binding to heated luciferase (heated luciferase) [%] | stoichiometry N [1] |
| --- | --- | --- |
| Sis1_Δ121-257 (natural protein, yeast, UniProt P25294 1-352, looked up, Sis1, yeast Type II Hsp40 (352 residues), residues 121 to 257 (G/M and CTDI) deleted; also called Sis1 G/M plus CTDI deletion mutant; source: E. coli BL21(DE3)pLys, purified (Macro-prep High S cation exchange, hydroxyapatite)) MVKETKLYDLLGVSPSANEQELKKGYRKAALKYHPDKPTGDTEKFKEISEAFEILNDPQKREIYDQYGLEAARSGGPSFGPGGPGGAGGAGGFPGGAGGFSGGHAFSNEDAFNIFSQFFGHPNFKRDGDDLIYTLPLSFKESLLGFSKTIQTIDGRTLPLSRVQPVQPSQTSTYPGQGMPTPKNPSQRGNLIVKYKVDYPISLNDAQKRAIDENF | ~40 | 2 |
| Ydj1_Δ106-255 (natural protein, Ydj1, yeast Type I Hsp40 (409 residues), residues 106 to 255 (ZFLR and CTDI) deleted; also called Ydj1 ZFLR plus CTDI deletion mutant; source: E. coli BL21(DE3), purified (Macro-prep High Q anion exchange, hydroxyapatite, Superdex 200 SEC)) not shown | ~40 | 2 |
| Sis1 (natural protein, yeast, UniProt P25294 1-352, looked up, Sis1, yeast Type II Hsp40, 352 residues (J-domain, G/F, G/M, CTDI, CTDII); also called Type II Hsp40; full length Sis1 protein; source: recombinant, purified (Macro-prep High S cation exchange, hydroxyapatite)) MVKETKLYDLLGVSPSANEQELKKGYRKAALKYHPDKPTGDTEKFKEISEAFEILNDPQKREIYDQYGLEAARSGGPSFGPGGPGGAGGAGGFPGGAGGFSGGHAFSNEDAFNIFSQFFGGSSPFGGADDSGFSFSSYPSGGGAGMGGMPGGMGGMHGGMGGMPGGFRSASSSPTYPEEETVQVNLPVSLEDLFVGKKKSFKIGRKGPHGASEKTQIDIQLKPGWKAGTKITYKNQGDYNPQTGRRKTLQFVIQEKSHPNFKRDGDDLIYTLPLSFKESLLGFSKTIQTIDGRTLPLSRVQPVQPSQTSTYPGQGMPTPKNPSQRGNLIVKYKVDYPISLNDAQKRAIDENF | – | 2 |
| Sis1_Δ124-174 (natural protein, yeast, UniProt P25294 1-352, looked up, Sis1, yeast Type II Hsp40 (352 residues), residues 124 to 174 (G/M region) deleted; also called Sis1 G/M deletion mutant; source: E. coli BL21(DE3)pLys, purified (Macro-prep High S cation exchange, hydroxyapatite)) MVKETKLYDLLGVSPSANEQELKKGYRKAALKYHPDKPTGDTEKFKEISEAFEILNDPQKREIYDQYGLEAARSGGPSFGPGGPGGAGGAGGFPGGAGGFSGGHAFSNEDAFNIFSQFFGGSSTYPEEETVQVNLPVSLEDLFVGKKKSFKIGRKGPHGASEKTQIDIQLKPGWKAGTKITYKNQGDYNPQTGRRKTLQFVIQEKSHPNFKRDGDDLIYTLPLSFKESLLGFSKTIQTIDGRTLPLSRVQPVQPSQTSTYPGQGMPTPKNPSQRGNLIVKYKVDYPISLNDAQKRAIDENF | ~60 | 2 |
